This is an account of results in the supplement of paper PMC10567573.

The chains are these.
B1: NCF4 (parent)
chain: FGPDSKSSALACTLPTLPAKVYVG
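Also: lentivirally expressed fusions sorted by FACS into six bins by GFP to DsRed ratio, PSI derived from sequencing read proportions per bin multiplied by bin number.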

Variants of B1 are the subject of this series. Kind of series: protein stability index of a GFP-peptide fusion (GPS, HEK-293T) (PSI 1-6); higher = more stable. The following applies: c terminus: a fixed tail appended.
Consider FGPDSKSSALACTLPTLAAKVYVG [P18A], for which the protein stability index turned out to be 2.98.
With FGPDSKWSALACTLPTLPAKVYVG [S7W] the figure was 1.97.
For the variant FGPDSKYSALACTLPTLPAKVYVG [S7Y], the protein stability index is 1.06.
With FGPDSKSSALACQLPTLPAKVYVG [T13Q] the figure was 2.19; with FGPDSKSSALACALPTLPAKVYVG [T13A], 2.28; with FGPDSKSSALACHLPTLPAKVYVG [T13H], 1.85.
For FGPDSKSSALACLLPTLPAKVYVG [T13L], the protein stability index was 1.83.
As for FGPDSKSSALACFLPTLPAKVYVG [T13F], the protein stability index was found to be 2.39.
The result for FGPDSKSSALACPLPTLPAKVYVG [T13P] reads 1.88; that for FGPDSKSSALACGLPTLPAKVYVG [T13G], 1.85.
For the variant FGPDSKSSALACDLPTLPAKVYVG [T13D], the protein stability index turned out to be 2.81.
In the case of FGPDSKSSALACKLPTLPAKVYVG [T13K], the protein stability index is 2.46.
Regarding FGPDSKSSALACYLPTLPAKVYVG [T13Y], the protein stability index turned out to be 1.86.
With FGPDSKSSALACWLPTLPAKVYVG [T13W] the figure was 3.59; with FGPDSKSSALACMLPTLPAKVYVG [T13M], 2.15.
For the variant FGPDSKSSALACVLPTLPAKVYVG [T13V], the protein stability index came out at 1.79.
Turning to FGPDSKSSALACILPTLPAKVYVG [T13I], the protein stability index amounted to 2.18.
As for FGPDSKSSALACELPTLPAKVYVG [T13E], the protein stability index worked out at 2.7.
The result for FGPDSKSSALACCLPTLPAKVYVG [T13C] reads 1.96; that for FGPDSKSSALACRLPTLPAKVYVG [T13R], 2.33; that for FGPDSKSSALACSLPTLPAKVYVG [T13S], 2.44.
FGPDSKSSALACNLPTLPAKVYVG [T13N]: the protein stability index came out at 2.9.
The result for FGPDSKSSALACTLPTRPAKVYVG [L17R] reads 2.2; that for FGPDSKSSALACTLPTYPAKVYVG [L17Y], 1.54; that for FGPDSKSSALACTLPTMPAKVYVG [L17M], 2.24.
For FGPDSKSSALACTLPTDPAKVYVG [L17D], the protein stability index is 2.76.
With FGPDSKSSALACTLPTWPAKVYVG [L17W] the figure was 1.88.
With FGPDSKSSALACTLPTIPAKVYVG [L17I] the figure was 1.88; with FGPDSKSSALACTLPTNPAKVYVG [L17N], 2.27; with FGPDSKSSALACTLPTFPAKVYVG [L17F], 2.
As for FGPDSKSSALACTLPTGPAKVYVG [L17G], the protein stability index was determined as 2.59.
The result for FGPDSKSSALACTLPTSPAKVYVG [L17S] reads 2.16.
Regarding FGPDSKSSALACTLPTEPAKVYVG [L17E], the protein stability index was 2.64.
On to FGPDSKSSALACTLPTCPAKVYVG [L17C], for which the protein stability index worked out at 2.14.
With FGPDSKSSALACTLPTHPAKVYVG [L17H] the figure was 2.09; with FGPDSKSSALACTLPTTPAKVYVG [L17T], 2.43.
Turning to FGPDSKSSALACTLPTQPAKVYVG [L17Q], the protein stability index was found to be 3.03.
With FGPDSKSSALACTLPTAPAKVYVG [L17A] the figure was 2.39; with FGPDSKSSALACTLPTVPAKVYVG [L17V], 2.29.
Consider FGPDSKSSALACTLPTKPAKVYVG [L17K], for which the protein stability index worked out at 2.54.
The result for FGPDSKSSALACTLPTPPAKVYVG [L17P] reads 2.6.
With FGPDSKSSYLACTLPTLPAKVYVG [A9Y] the figure was 1.5; with FGPDSKSSDLACTLPTLPAKVYVG [A9D], 3.18.
With FGPDSKSSWLACTLPTLPAKVYVG [A9W] the figure was 2.52; with FGPDSKSSNLACTLPTLPAKVYVG [A9N], 2.49; with FGPDSKSSCLACTLPTLPAKVYVG [A9C], 1.74.
Turning to FGPDSKSSELACTLPTLPAKVYVG [A9E], the protein stability index is 3.67.
The result for FGPDSKSSSLACTLPTLPAKVYVG [A9S] reads 2.23.
The result for FGPDSKSSRLACTLPTLPAKVYVG [A9R] reads 2.29.
With FGPDSKSSMLACTLPTLPAKVYVG [A9M] the figure was 1.9; with FGPDSKSSLLACTLPTLPAKVYVG [A9L], 1.11; with FGPDSKSSQLACTLPTLPAKVYVG [A9Q], 2.46.
For FGPDSKSSGLACTLPTLPAKVYVG [A9G], the protein stability index was determined as 1.67.
FGPDSKSSHLACTLPTLPAKVYVG [A9H]: the protein stability index was 2.23.
The result for FGPDSKSSILACTLPTLPAKVYVG [A9I] reads 1.86; that for FGPDSKSSTLACTLPTLPAKVYVG [A9T], 2.44; that for FGPDSKSSVLACTLPTLPAKVYVG [A9V], 2.25.
Turning to FGPDSKSSPLACTLPTLPAKVYVG [A9P], the protein stability index amounted to 1.57.
The result for FGPDSKSSKLACTLPTLPAKVYVG [A9K] reads 1.89; that for FGPDSKSSALCCTLPTLPAKVYVG [A11C], 2.35; that for FGPDSKSSALICTLPTLPAKVYVG [A11I], 2.24.
As for FGPDSKSSALGCTLPTLPAKVYVG [A11G], the protein stability index is 2.22.
The result for FGPDSKSSALDCTLPTLPAKVYVG [A11D] reads 2.99.
The result for FGPDSKSSALSCTLPTLPAKVYVG [A11S] reads 2.45; that for FGPDSKSSALHCTLPTLPAKVYVG [A11H], 2.23.
With FGPDSKSSALKCTLPTLPAKVYVG [A11K] the figure was 2.29; with FGPDSKSSALPCTLPTLPAKVYVG [A11P], 2.17; with FGPDSKSSALVCTLPTLPAKVYVG [A11V], 1.76.
For the variant FGPDSKSSALECTLPTLPAKVYVG [A11E], the protein stability index was 2.63.
For the variant FGPDSKSSALFCTLPTLPAKVYVG [A11F], the protein stability index stood at 2.4.
The result for FGPDSKSSALQCTLPTLPAKVYVG [A11Q] reads 3.
With FGPDSKSSALYCTLPTLPAKVYVG [A11Y], the protein stability index amounted to 1.46.
Regarding FGPDSKSSALRCTLPTLPAKVYVG [A11R], the protein stability index was 1.58.
In the case of FGPDSKSSALLCTLPTLPAKVYVG [A11L], the protein stability index is 2.18.
As for FGPDSKSSALNCTLPTLPAKVYVG [A11N], the protein stability index worked out at 2.78.
The result for FGPDSKSSALTCTLPTLPAKVYVG [A11T] reads 2.51.
With FGPDSKSSALMCTLPTLPAKVYVG [A11M] the figure was 2.86.
With FGPDSKSMALACTLPTLPAKVYVG [S8M] the figure was 2.08; with FGPDSKSKALACTLPTLPAKVYVG [S8K], 1.85.
In the case of FGPDSKSAALACTLPTLPAKVYVG [S8A], the protein stability index stood at 2.32.
Consider FGPDSKSTALACTLPTLPAKVYVG [S8T], for which the protein stability index is 1.89.
On to FGPDSKSCALACTLPTLPAKVYVG [S8C], for which the protein stability index was 2.44.
With FGPDSKSRALACTLPTLPAKVYVG [S8R] the figure was 3.19; with FGPDSKSEALACTLPTLPAKVYVG [S8E], 3.36.
With FGPDSKSFALACTLPTLPAKVYVG [S8F], the protein stability index is 2.86.
FGPDSKSVALACTLPTLPAKVYVG [S8V]: the protein stability index was 2.22.
As to FGPDSKSLALACTLPTLPAKVYVG [S8L], the protein stability index was 1.98.
On to FGPDSKSPALACTLPTLPAKVYVG [S8P], for which the protein stability index was determined as 2.22.
On to FGPDSKSNALACTLPTLPAKVYVG [S8N], for which the protein stability index was found to be 2.32.
The result for FGPDSKSDALACTLPTLPAKVYVG [S8D] reads 2.7; that for FGPDSKSIALACTLPTLPAKVYVG [S8I], 2.44.
Regarding FGPDSKSWALACTLPTLPAKVYVG [S8W], the protein stability index worked out at 2.65.
With FGPDSKSQALACTLPTLPAKVYVG [S8Q], the protein stability index is 2.29.
Consider FGPDSKSHALACTLPTLPAKVYVG [S8H], for which the protein stability index was 1.67.
